According to the supplement of paper PMC12042874:
± gives the uncertainty stated by the source.

Test: amyloid nucleation score (Sup35N fusion, yeast selection) (log enrichment); library NNK2; higher = more nucleation; inactive = no reads after selection
In short: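 Output and input plasmid inserts were sequenced by Illumina after psi-negative yeast carrying Sup35N fused to peptides of 20 random codons had been induced 24 hours with 100 μM copper sulfate and grown 7 days at 30°C on medium lacking adenine and uracil. The nucleation score is the DiMSum log enrichment of output over input reads, centred on the mode score of non-aggregating sequences. Sequences with under 100 input reads were excluded.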
Substance PTRCRVSYKRLRCSQLSLQL has an amyloid nucleation score of -0.012 ± 0.79. With VGNLRGYVKLVISFSVLRHK the amyloid nucleation score was “inactive”. Work on MFPVPLVNIGMPDRWVKEKD yielded an amyloid nucleation score of 0.469 ± 0.34. ANLRNSW gave an amyloid nucleation score of -0.82 ± 0.56. QYYELWSFTDWVWDLWGVQS showed an amyloid nucleation score of -0.568 ± 0.63. Substance NHITMFDRVSYYVKLKHYVA has an amyloid nucleation score of 0.452 ± 0.37. For CYRYVGCSTYSTDQVVCAYK, the amyloid nucleation score was 6.006 ± 0.051. Work on FYDSVKEISVLSCVWGDILE yielded an amyloid nucleation score of 7.235 ± 0.029. In the case of VMCFVDRDRFCNLFKLCLEF, the amyloid nucleation score is reported as -1.45 ± 0.49. Substance ASSNLNDTYITIDADSVHRR has an amyloid nucleation score of 0.033 ± 0.49. Substance SFRDDICWVRWGSL has an amyloid nucleation score of 0.251 ± 0.23. With QLRRFERMLSLVM the amyloid nucleation score was 1.31 ± 0.3. VISSLSISCYDHSVYVKAVK gave an amyloid nucleation score of 0.445 ± 0.33. In the case of SKMVDLVVNPQVYCLRRVFW, the amyloid nucleation score is reported as 2.9 ± 0.078. FGINSLYINKWSDRLRQCTR showed an amyloid nucleation score of -0.142 ± 0.79. LQYIY gave an amyloid nucleation score of -0.533 ± 0.78. In the case of IPFRFDMSRSFISSTFTVRI, the amyloid nucleation score is reported as -0.533 ± 0.63. Substance RYPVDRLVMSKRCPALRDGG has an amyloid nucleation score of 0.652 ± 0.23. Work on INFYIDIWISIRREGFAFRP yielded an amyloid nucleation score of 1.97 ± 0.25. Work on MRCKRYECSGDSWWGYSFAK yielded an amyloid nucleation score of 0.131 ± 0.27. WNYITVDISQLNLPGVAMGW showed an amyloid nucleation score of 3.45 ± 0.097. For KSINNC, the amyloid nucleation score was 0.181 ± 0.26. With RLQDNRDVATGH the amyloid nucleation score was “inactive”. Work on GLRQVGA yielded an amyloid nucleation score of -0.34 ± 0.79. RQANFAQDPTSIVPVYMYLR showed an amyloid nucleation score of 2.35 ± 0.074. Substance ALHSWFRMSSLSMYIVDMGG has an amyloid nucleation score of -0.077 ± 0.76. With CISKLKFLGCRVE the amyloid nucleation score was “inactive”. ANQDGNCFGFISVGSQLSLM gave an amyloid nucleation score of 0.387 ± 0.8. In the case of RGFRIVLINRCVILRSV, the amyloid nucleation score is reported as 0.198 ± 0.26. For FSMVT, the amyloid nucleation score was 0.057 ± 0.63. Work on LQKWYGDD yielded an amyloid nucleation score of 1.58 ± 0.34. Work on LFVYIFVVKVDF yielded an amyloid nucleation score of 0.959 ± 0.27. PRMSTMTTKCGKLKNGKYRR gave an amyloid nucleation score of 0.549 ± 0.51. Substance PDGTVYDGYSFCSVS has an amyloid nucleation score of -0.615 ± 0.63. With YFNSLLPLLSPFYRPNIALL the amyloid nucleation score was -0.299 ± 0.56. With DTWVLDIMYFSLRYWVFVSV the amyloid nucleation score was 0.228 ± 1. Work on FIYLIMFCKMVQWTIAFFKA yielded an amyloid nucleation score of -0.658 ± 0.64. SHLTNDVY showed an amyloid nucleation score of 0.614 ± 0.43. Substance WWHLKTQKSP has an amyloid nucleation score of -0.09 ± 0.44. For WNVMHI, the amyloid nucleation score was 0.358 ± 0.64. With IYFFSVF the amyloid nucleation score was “inactive”. For ERNCISYHKGIFDNNEC, the amyloid nucleation score was “inactive”. In the case of VGYIMYIYDGYRVVFVGYYR, the amyloid nucleation score is reported as 0.217 ± 0.65. Work on MRCNFADSAYRMISMTV yielded an amyloid nucleation score of 0.412 ± 0.55. With SIFKSIWDYLIYRSLVSHPH the amyloid nucleation score was -0.305 ± 1. LDLDMRGKHFVFHHTVKHAI showed an amyloid nucleation score of 1.79 ± 0.14. Substance DRNPSGNSERPHVMPHPSVD has an amyloid nucleation score of -0.146 ± 0.32. CYFCWDFLIGCNFTHNAQ gave an amyloid nucleation score of 7.237 ± 0.063. For QCLIDWSFTFLLNVVLDYFY, the amyloid nucleation score was “inactive”. With VTLSGYRVPLTLWDFGRCLC the amyloid nucleation score was -0.565 ± 0.35. For LSIVKFI, the amyloid nucleation score was 1.3 ± 0.12. QVTSNRSTGRRYILNQMC showed an amyloid nucleation score of -0.337 ± 1.1. In the case of GLYHFRVITASKSQMEGFLM, the amyloid nucleation score is reported as -0.018 ± 1.1. Work on THSRRLRLNAKMCLHFLWYR yielded an amyloid nucleation score of -0.115 ± 0.2. For NGVRLNLVNFSFGLDVMPFR, the amyloid nucleation score was 7.642 ± 0.071. Substance LEQKVIIRCCPN has an amyloid nucleation score of 0.091 ± 0.18. With HRLQLPHHRKGKWVLLMWGV the amyloid nucleation score was -0.44 ± 0.41. LGFDFSNVKRTGRVTFFDCM showed an amyloid nucleation score of -0.1 ± 0.35. In the case of IREGMWCSRGMHHTRLRDFS, the amyloid nucleation score is reported as 0.671 ± 0.64. NNGPSKT gave an amyloid nucleation score of 0.51 ± 0.54. For ILYGCLLPCLHLRGHPLVLK, the amyloid nucleation score was 0.42 ± 0.33. For SVGGETITRWKCIWMTRRTE, the amyloid nucleation score was 1.77 ± 0.16. FFGRGSHKAGYYSCTTSLTQ showed an amyloid nucleation score of 1.07 ± 0.16. Substance GMIVVTSGNSR has an amyloid nucleation score of -0.037 ± 0.42. In the case of CTNAGRFMTWSNFRYIG, the amyloid nucleation score is reported as 0.501 ± 0.8. Work on SSFVIPSKR yielded an amyloid nucleation score of -1.31 ± 0.78. Substance AEQRWTVRIVLSYYVSKINI has an amyloid nucleation score of 0.316 ± 0.65. AKDRTCRWLISKQSIPDSRA gave an amyloid nucleation score of 0.119 ± 0.27. RSYLIKSLVSSLSARWIMMS gave an amyloid nucleation score of -0.03 ± 0.49. In the case of HFYCMV, the amyloid nucleation score is reported as 4.51 ± 0.11.
